# Source: article PMC12903857
# pKd: −log10 of the molar value.
# Tests used:
# 15-mer B-RAF peptide = assay: fluorescence polarisation; fluorescence anisotropy protein titration: 14-3-3σ titrated into 10 nM labeled peptide in the presence of a saturating concentration (100 μM) of a covalent compound, which is named in the quantity of each row; apparent
# 15-mer A-RAF peptide [1] = assay: fluorescence polarisation; fluorescence anisotropy; Kd of the 15-mer peptides, told apart by the paper from the appKd in the presence of DMSO
# 15-mer A-RAF peptide [2] = assay: fluorescence polarisation; fluorescence anisotropy protein titration: 14-3-3σ titrated into 10 nM labeled peptide in the presence of DMSO; apparent
substance,measurement,setting,value
14-3-3σ (from UniProt P31947 1-248) (natural protein),fold stabilization with 22 (against DMSO),15-mer B-RAF peptide,448 fold
same,fold stabilization with 23 (against DMSO),15-mer B-RAF peptide,448 fold
same,pKd,15-mer A-RAF peptide [1],5.10
same,pKd,15-mer A-RAF peptide [2],5.52
